Numbering of substitutions follows the chain as printed. Read-outs that look alike come from different tables or passages of the source.
B1: AS167821 sdAb-mIgG2aFc (Fc fusion)
chain: QVRLVESGGGSVQAGGSLRLSCAASGRTYSTYCMGWFRQAPGKEREGVATIYIGSGRTYYVDSVKGRFTISQDNAKNTLYLQMNNLKPEDTAMYYCTADVDPYESSWSRGLGYWGQGTQVTVSS
B2: AS170036 VL1VH1-98I108A (scFv)
scFv: QSALTQPRSVSGSPGQSVTISCAGTSSDVGSENYVSWYQQHPGKAPKLMIYQVNKRASGVPDRFSGSKSGNTASLTISGLQAEDEADYYCASYRSSDINIVFGGGTKLTVLGGGGSGGGGSGGGGSEVQLVESGGGLVQPGGSLRLSCAASGFTFSSYAMSWVRQAPGKGLEWVSTINSGTGSPYYADSVKGRFTISRDNSKNTLYLQMNSLRAEDTAVYYCAKNFFDGSWFLAPPAMDYWGQGTLVTVSSHHHHHH
B3: AS170036 VL1VH1 (scFv)
scFv: B2 scFv with I98H, A234G
B4: AS170036 VL1VH1-57M98Q (scFv)
scFv: B2 scFv with I98Q, S183M, A234G
B5: AS170036 scFv-mIgG2aFc (Fc fusion)
chain: QLVLTQPSSVSGTPGQTVTISCAGTSSDVGSENYVSWYRQLPGTAPKLLIYQVNKRASGIADRFSGSKSGNTASMTISGLQSADEADYYCASYRSSDHNIVFGGGTHLTVLGGGGSGGGGSGGGGSAVQLVESGGGLVQPGGSLRLSCTASGFTFSSYAMSWVRQAPGKGLEWVSTINSGTGSPYYADSVKGRFTISRDNAKNTLYLQLNSLKTEDTAMYYCAKNFFDGSWFLGPPAMDYWGKGTLVTISS
B6: AS179732 scFv-mIgG2aFc (Fc fusion)
chain: NFMLTQPPSMSGSPRQSVTISCTGSSSNIGGNYVNWYQHLPGTAPKLLIYDNSNRASGVPERFSGSKSGSSASLTITGLQAEDEGDYYCASWDDSLSGAVFGGGTHLTVLGGGGSGGGGSGGGGSEVQLVESGGGLVQPGGSLRLSCAASGFTFLNYAMSWVRQAPGKGLEWVSSNSGAGSTYYSDSVKGRFTISRDYAKNVVYLQLNSLKTEDTGMYYCAKGTNVGSWSSLHYWGQGTQVTVSS
B7: AS179723 scFv-mIgG2aFc (Fc fusion)
chain: B6 chain with N1Q, F2A, M3G, S27N, S53K, A56P, R62Q, F63I, G98A, A99V
B8: AS148691 scFv-mIgG2aFc (Fc fusion)
chain: DIQMTQSPSSLSASVGDRVTITCRASQSVSSAVAWYQQKPGKAPKLLIYSASSLYSGVPSRFSGSRSGTDFTLTISSLQPEDFATYYCQQYYGAYLITFGQGTKVEIKGGGGSGGGGSGGGGSEVQLVESGGGLVQPGGSLRLSCAASGFNLYYSSIHWVRQAPGKGLEWVASIYSSYGSTSYADSVKGRFTISADTSKNTAYLQMNSLRAEDTAVYYCARVGPGYYGIDYWGQGTLVTVSS
B9: AS167830 sdAb-mIgG2aFc (Fc fusion)
chain: QVKLVESGGGSVQAGGSLRLSCAASRSSEYMNRRFCMGWFRQASGKEREGVAVVYIGGGRTYYADSVKGRFTISQDNAKNTLYLQMNNLKPEDTAMYYCTADVDPYESSWSRDLGYWGQGTQVTVSS

Columns and labels:
[1] = molecular target: AFP158 loaded T2 cells (human;, UniProt P61769 21-119); test: flow cytometry
[2] = molecular target: A*02:06; test: SPR
[3] = molecular target: AFP158/HLA-A*02:01 complex; test: SPR
[4] = molecular target: A*02:03; test: SPR; low fitting confidence
[5] = molecular target: A*02:05; test: SPR; low fitting confidence
[6] = molecular target: A*02:11; test: SPR; low fitting confidence
[7] = molecular target: A*02:07; test: SPR; low fitting confidence
[8] = molecular target: A*02:02; test: SPR; low fitting confidence
[9] = molecular target: A*02:11; test: SPR
[10] = molecular target: AFP158/HLA-A*02:01 complex; test: SPR; remark: listed apart in the source

EC50 [1] [nM]	Kd [2] [nM]	Kd [3] [nM]	Kd [4] [nM]	Kd [7] [nM]	Kd [8] [nM]	Kd [10] [nM]	further results	Binder
3.63	–	–	–	–	–	–	–	B1
–	330	22	> 31000	> 16000	> 530	–	Kd [5]: > 1100 nM; Kd [6]: > 250 nM	B2
–	5100	710	> 2800	> 18000	> 1500	–	Kd [9]: 220 nM	B3
–	570	46	> 43000	> 19000	> 910	–	Kd [9]: 360 nM; Kd [5]: > 910 nM	B4
4.35	–	–	–	–	–	387	–	B5
1.15	–	–	–	–	–	39.8	–	B6
1.48	–	–	–	–	–	80.4	–	B7
413	–	–	–	–	–	–	–	B8
6.14	–	–	–	–	–	–	–	B9

Reference: patent US20240279318A1 (published 2024)
